{"source": "paper PMC12753717", "key": {"[1]": {"biological_target": "soluble envelope protein ectodomain of yellow fever virus strain 17D with C-terminal 3C site and TwinStrep tag (yellow fever virus strain 17D)", "experiment": "SEC-MALS"}, "[2]": {"biological_target": "soluble envelope protein ectodomain of yellow fever virus strain Asibi with C-terminal 3C site and TwinStrep tag (yellow fever virus strain Asibi)", "experiment": "SEC-MALS"}}, "data": [{"substance": "precursor peptide pr of yellow fever virus strain 17D", "values": [{"measurement": "stoichiometry N", "setting": "[1]", "result": 1}]}, {"substance": "precursor peptide pr of yellow fever virus strain Asibi, canonical furin cleavage product (pr1, 9.95 kDa)", "values": [{"measurement": "stoichiometry N", "setting": "[2]", "result": 1}]}]}
